# Data reported in doi:10.1101/2025.08.15.670450 (2025).
# B1: Vascular Endothelial Growth Factor A (VEGF-A) (ligand)
# chain: MTDRQTDTAPSPSYHLLPGRRRTVDAAASRGQGPEPAPGGGVEGVGARGVALKLFVQLLGCSRFGGAVVRAGEAEPSGAARSASSGREEPQPEEGEEEEEKEEERGPQWRLGARKPGSWTGEAAVCADSAPAARAPQALARASGRGGRVARRGAEESGPPHSPSRRGSASRAGPGRASETMNFLLSWVHWSLALLLYLHHAKWSQAAPMAEGGGQNHHEVVKFMDVYQRSYCHPIETLVDIFQEYPDEIEYIFKPSCVPLMRCGGCCNDEGLECVPTEESNITMQIMRIKPHQGQHIGEMSFLQHNKCECRPKKDRARQEKKSVRGKGKGQKRKRKKSRYKSWSVPCGPCSERRKHLFVQDPQTCKCSCKNTDSRCKARQLELNERTCRCDKPRR
# Columns and labels:
# VEGF-A Binder 13 [1] = test: BLI; KD2, second site
# GDM_VEGFA_54 [2] = test: reported in original publication
# VEGF-A Binder 13 [3] = test: BLI; KD1
# GDM_VEGFA_54 [4] = test: BLI
# VEGF-A_Binder_13 = test: BLI
binder,measurement,setting,value
B1,Kd,VEGF-A Binder 13 [1],0.0864 µM
same,Kd,GDM_VEGFA_54 [2],0.00048 µM
same,Kd,VEGF-A Binder 13 [3],0.0264 µM
same,Kd,GDM_VEGFA_54 [4],0.0101 µM
same,Kd,VEGF-A_Binder_13,0.0134 µM
